# According to patent US20230212549A1, “COMPOUNDS COMPRISING A […] LIGAND AND USE THEREOF” (priority 2021, published 2023):
# Bridge positions count the residues as written; N and C are the ends.
# T1: A2A (h) (human), P29274
# T1 chain: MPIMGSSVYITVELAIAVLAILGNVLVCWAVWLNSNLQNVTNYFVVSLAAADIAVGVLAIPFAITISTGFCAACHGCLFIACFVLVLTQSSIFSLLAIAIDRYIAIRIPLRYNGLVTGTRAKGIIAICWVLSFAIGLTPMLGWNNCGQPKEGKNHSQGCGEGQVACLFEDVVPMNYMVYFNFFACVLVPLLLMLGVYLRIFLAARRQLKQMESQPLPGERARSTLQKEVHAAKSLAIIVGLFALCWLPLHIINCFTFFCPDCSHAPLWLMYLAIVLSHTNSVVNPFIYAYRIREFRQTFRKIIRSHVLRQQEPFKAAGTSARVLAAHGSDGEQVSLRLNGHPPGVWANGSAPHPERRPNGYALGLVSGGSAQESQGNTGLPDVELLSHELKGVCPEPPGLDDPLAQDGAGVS
# T2: CB1 (h) (human), P21554
# T2 chain: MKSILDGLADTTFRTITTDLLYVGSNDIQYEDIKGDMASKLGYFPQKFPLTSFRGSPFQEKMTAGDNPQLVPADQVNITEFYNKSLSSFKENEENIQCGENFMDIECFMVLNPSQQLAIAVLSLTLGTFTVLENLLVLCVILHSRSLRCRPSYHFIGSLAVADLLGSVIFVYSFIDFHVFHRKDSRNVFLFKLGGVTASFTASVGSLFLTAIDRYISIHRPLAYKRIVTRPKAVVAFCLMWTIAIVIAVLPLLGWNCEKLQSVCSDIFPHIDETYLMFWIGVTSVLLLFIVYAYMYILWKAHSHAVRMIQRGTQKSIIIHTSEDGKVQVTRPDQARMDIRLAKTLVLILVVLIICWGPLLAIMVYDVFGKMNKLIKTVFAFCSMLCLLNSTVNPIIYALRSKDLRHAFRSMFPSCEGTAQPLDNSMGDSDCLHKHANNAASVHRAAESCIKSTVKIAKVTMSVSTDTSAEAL
# T3: D2S (h) (human), P14416
# T3 chain: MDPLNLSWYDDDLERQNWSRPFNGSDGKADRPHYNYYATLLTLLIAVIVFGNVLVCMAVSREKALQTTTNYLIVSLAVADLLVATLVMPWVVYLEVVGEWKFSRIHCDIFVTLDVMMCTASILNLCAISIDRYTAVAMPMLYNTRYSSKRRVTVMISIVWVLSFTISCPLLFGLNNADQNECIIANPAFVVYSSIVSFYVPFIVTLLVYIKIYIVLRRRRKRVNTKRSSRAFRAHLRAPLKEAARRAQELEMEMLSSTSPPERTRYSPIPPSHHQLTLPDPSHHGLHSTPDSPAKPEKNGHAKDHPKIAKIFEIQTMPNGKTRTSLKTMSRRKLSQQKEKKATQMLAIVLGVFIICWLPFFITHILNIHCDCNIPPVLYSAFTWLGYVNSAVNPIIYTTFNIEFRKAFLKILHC
# T4: delta (DOP) (h) (human), P41143
# T4 chain: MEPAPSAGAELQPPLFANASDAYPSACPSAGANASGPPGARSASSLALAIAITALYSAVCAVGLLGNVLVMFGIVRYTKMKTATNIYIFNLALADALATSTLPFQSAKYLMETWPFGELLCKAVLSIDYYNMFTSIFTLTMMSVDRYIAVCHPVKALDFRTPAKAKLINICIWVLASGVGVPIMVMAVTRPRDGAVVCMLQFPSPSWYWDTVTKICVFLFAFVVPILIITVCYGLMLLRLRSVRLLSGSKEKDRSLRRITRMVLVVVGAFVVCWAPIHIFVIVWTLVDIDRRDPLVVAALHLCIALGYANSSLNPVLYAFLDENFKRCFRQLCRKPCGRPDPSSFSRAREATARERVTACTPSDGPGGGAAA
# T5: dopamine transporter (h) (human), Q01959
# T5 chain: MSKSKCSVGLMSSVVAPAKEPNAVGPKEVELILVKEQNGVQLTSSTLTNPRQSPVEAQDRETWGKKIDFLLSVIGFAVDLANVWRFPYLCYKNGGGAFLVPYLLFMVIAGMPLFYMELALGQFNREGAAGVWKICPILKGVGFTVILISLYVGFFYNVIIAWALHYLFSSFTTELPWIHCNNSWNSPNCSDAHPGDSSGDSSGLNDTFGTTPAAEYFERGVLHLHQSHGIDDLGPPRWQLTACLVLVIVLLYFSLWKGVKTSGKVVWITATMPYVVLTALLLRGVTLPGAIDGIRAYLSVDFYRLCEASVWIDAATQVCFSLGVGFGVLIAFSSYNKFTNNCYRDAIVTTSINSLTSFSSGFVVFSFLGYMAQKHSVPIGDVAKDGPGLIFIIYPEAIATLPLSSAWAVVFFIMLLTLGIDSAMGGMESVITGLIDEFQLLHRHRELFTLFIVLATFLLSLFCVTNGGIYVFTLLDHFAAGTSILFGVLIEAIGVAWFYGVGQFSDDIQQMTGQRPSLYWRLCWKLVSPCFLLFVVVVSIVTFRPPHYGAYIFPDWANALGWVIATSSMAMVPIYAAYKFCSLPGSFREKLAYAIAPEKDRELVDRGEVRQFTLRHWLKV
# B1: Hex-[Cys(tMeBn(DOTA-AET))-Pro-Pro-Thr-Gln-Phe-Cys]-OH (peptide)
# peptide: Hex-CPPTQFC-OH
# modifications: bridge 1-7; not fully specified (bridges); printed as Hex-[Cys(tMeBn(DOTA-AET))-Pro-Pro-Thr-Gln-Phe-Cys]-OH
# B2: Hex-[Cys(tMeBn(DOTA-PP))-Pro-Pro-Thr-Gln-Phe-Cys]-Asp-NH2 (peptide)
# peptide: Hex-CPPTQFCD-NH2
# modifications: bridge 1-7; not fully specified (bridges); printed as Hex-[Cys(tMeBn(DOTA-PP))-Pro-Pro-Thr-Gln-Phe-Cys]-Asp-NH2
# Tests used:
# [1] = target: 5-HT2B (h) (human), P41595; experiment: radioligand displacement (agonist radioligand), 10 µM; details: remark: other sources report otherwise
# 5-HT2B (h) (human), P41595, sequence (P41595 whole entry): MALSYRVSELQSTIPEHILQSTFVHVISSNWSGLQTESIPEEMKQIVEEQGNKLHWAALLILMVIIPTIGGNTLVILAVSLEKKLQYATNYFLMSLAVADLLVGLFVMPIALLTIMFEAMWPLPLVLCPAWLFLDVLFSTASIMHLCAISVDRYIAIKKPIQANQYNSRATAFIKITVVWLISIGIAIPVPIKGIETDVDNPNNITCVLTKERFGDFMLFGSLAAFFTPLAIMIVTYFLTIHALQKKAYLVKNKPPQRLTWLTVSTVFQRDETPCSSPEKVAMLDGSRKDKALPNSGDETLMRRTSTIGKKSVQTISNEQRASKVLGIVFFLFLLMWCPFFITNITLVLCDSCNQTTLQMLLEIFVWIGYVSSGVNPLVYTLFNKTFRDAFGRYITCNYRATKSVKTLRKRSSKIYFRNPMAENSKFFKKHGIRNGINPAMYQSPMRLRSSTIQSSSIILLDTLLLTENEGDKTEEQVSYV
# A2A (h) (human), P29274 = target: T1, A2A (h) (human), P29274; experiment: as above; details: remark: other sources report otherwise
# CB1 (h) (human), P21554 = target: T2, CB1 (h) (human), P21554; experiment: as above; details: remark: other sources report otherwise
# CB2 (h) (human), P34972 = experiment: as above; details: remark: other sources report otherwise
# CB2 (h) (human), P34972, sequence (P34972 whole entry): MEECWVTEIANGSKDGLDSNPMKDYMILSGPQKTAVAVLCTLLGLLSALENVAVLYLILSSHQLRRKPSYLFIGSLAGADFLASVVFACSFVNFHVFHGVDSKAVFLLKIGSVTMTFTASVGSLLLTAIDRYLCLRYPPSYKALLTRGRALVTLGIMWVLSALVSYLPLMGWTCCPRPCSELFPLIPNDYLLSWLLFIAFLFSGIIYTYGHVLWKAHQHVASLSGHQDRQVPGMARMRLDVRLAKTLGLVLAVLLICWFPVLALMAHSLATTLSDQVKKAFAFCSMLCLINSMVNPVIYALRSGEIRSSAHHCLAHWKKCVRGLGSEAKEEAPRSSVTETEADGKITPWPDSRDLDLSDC
# D2S (h) (human), P14416 = target: T3, D2S (h) (human), P14416; experiment: as above
# [2] = target: beta 1 (h) (human), P08588; experiment: as above; details: remark: other sources report otherwise
# beta 1 (h) (human), P08588, sequence (P08588 whole entry): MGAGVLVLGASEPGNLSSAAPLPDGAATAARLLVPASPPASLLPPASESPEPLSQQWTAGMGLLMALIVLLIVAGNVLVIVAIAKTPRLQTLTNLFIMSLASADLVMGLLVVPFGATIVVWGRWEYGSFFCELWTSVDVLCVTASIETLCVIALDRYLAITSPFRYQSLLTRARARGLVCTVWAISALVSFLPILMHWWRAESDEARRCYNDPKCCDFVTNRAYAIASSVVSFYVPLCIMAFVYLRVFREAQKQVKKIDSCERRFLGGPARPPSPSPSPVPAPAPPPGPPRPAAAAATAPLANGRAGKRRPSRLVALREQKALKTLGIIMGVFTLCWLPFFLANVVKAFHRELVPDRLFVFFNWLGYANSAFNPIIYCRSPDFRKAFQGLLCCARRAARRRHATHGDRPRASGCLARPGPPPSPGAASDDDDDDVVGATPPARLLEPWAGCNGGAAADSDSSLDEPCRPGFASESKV
# [3] = target: T4, delta (DOP) (h) (human), P41143; experiment: as above; details: remark: other sources report otherwise
# [4] = target: kappa (h) (KOP) (human), P41145; experiment: as above; details: remark: other sources report otherwise
# kappa (h) (KOP) (human), P41145, sequence (P41145 whole entry): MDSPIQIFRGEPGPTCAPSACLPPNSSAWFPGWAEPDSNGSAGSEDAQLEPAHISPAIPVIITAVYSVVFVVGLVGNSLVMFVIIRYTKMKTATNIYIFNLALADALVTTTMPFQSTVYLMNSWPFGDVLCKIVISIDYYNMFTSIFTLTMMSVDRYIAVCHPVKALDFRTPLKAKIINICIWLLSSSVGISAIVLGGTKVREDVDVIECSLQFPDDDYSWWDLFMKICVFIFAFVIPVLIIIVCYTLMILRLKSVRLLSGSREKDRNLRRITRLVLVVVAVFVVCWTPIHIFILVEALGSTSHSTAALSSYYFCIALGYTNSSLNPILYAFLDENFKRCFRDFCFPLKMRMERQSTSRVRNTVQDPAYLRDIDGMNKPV
# [5] = target: T5, dopamine transporter (h) (human), Q01959; experiment: radioligand displacement (antagonist radioligand), 10 µM; details: remark: other sources report otherwise
binder,measurement,setting,value
B1,% Inhibition of Specific Binding,[1],3%
same,% Inhibition of Specific Binding,"A2A (h) (human), P29274",-16%
same,% Inhibition of Specific Binding,"CB1 (h) (human), P21554",-7%
same,% Inhibition of Specific Binding,"CB2 (h) (human), P34972",-5%
same,% Inhibition of Specific Binding,"D2S (h) (human), P14416",-7%
same,% Inhibition of Specific Binding,[2],-13%
same,% Inhibition of Specific Binding,[3],1%
same,% Inhibition of Specific Binding,[4],10%
same,% Inhibition of Specific Binding,[5],7%
B2,% Inhibition of Specific Binding,[1],2%
same,% Inhibition of Specific Binding,"A2A (h) (human), P29274",-4%
same,% Inhibition of Specific Binding,"CB1 (h) (human), P21554",5%
same,% Inhibition of Specific Binding,"CB2 (h) (human), P34972",2%
same,% Inhibition of Specific Binding,"D2S (h) (human), P14416",15%
same,% Inhibition of Specific Binding,[2],4%
same,% Inhibition of Specific Binding,[3],0%
same,% Inhibition of Specific Binding,[4],7%
same,% Inhibition of Specific Binding,[5],12%
